Experimental data as given in patent US11760795B2, “Monoclonal antibodies to growth and differentiation factor 15 (GDF-15), and uses thereof for treating cancer cachexia and cancer” (JULIUS-MAXIMILIANS-UNIVERSITÄT WÜRZBURG, priority 2014, dated 2023).

Assays:
[1] = target: T1, recombinant mature human GDF-15 protein (Homo sapiens, UniProt Q99988); assay: Surface plasmon resonance binding to immobilized recombinant mature human GDF-15 (insect cell derived); conditions: GDF-15 derived from insect cell expression; 25° C.; 1:1 Langmuir-type interaction
T1 construct: made in house; host or cells: Baculovirus-transfected HighFive insect cells
T1 sequence (Q99988 with tags, fused parts or gaps): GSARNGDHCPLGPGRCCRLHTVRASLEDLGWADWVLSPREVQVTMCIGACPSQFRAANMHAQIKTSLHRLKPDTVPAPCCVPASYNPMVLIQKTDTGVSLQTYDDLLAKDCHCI
Experimental: Binding of monoclonal anti-human-GDF-15 antibodies according to the invention is generally assessed by employing surface plasmon resonance measurements using a Bio-Rad® ProteOn™ XPR36 system and Bio-Rad® GLC sensor chips as described for murine anti-human GDF-15 mAb-B1-23 in Example 1.
Binding of the monoclonal anti-human-GDF-15 antibody anti-human GDF-15 mAb-B1-23 was measured by employing surface plasmon resonance measurements using a Bio-Rad® ProteOn™ XPR36 system and Bio-Rad® GLC sensor chips:
For preparing the biosensors recombinant mature human GDF-15 protein was immobilized on flow cells 1 and 2. On one flow cell recombinant GDF-15 derived from Baculvirus-transfected insect cells (HighFive insect cells) and on the other recombinant protein derived from expression in E. coli was used. […] The resulting sensogram was analyzed using the software ProteOn Manager version 3.0. […] For the association rate constant a value of 5.4±0.06×10^5 M^−1s^−1 (kon) and for the dissociation rate constant a value of 4.3±0.03×10^−4 s^−1 (koff) could be determined (values are for the interaction of anti-human GDF-15 mAb-B1-23 with GDF-15 derived from insect cell expression).

[2] = test system: GDF-15 mediated AKT-phosphorylation in ovarian cancer cell line SK-OV-3; assay: Akt phosphorylation in SK-OV-3 cells (Western Blot); format: cell-based; conditions: 2 μg antibody preincubated 5 minutes with 10 ng/ml GDF-15 at 37° C.
Experimental: FIG. 2: Akt Phosphorylation in the Ovarian Carcinoma Cell Line SK-OV-3. In order to quantify the Western Blot for the ovarian carcinoma cell line SK-OV-3, the ratio of phosphorylated Akt to the total amount of Akt was calculated and normalized to the untreated control.
b) The treatment of the ovarian cancer cell line SK-OV-3 with recombinant GDF-15 led to the phosphorylation of AKT. AKT is a molecule, which is part of the PI3K-pathway and contributes to the activation and proliferation of cells. In this experiment SK-OV-3 cells were treated with 10 ng/ml recombinant GDF-15 for 10 min at 37° C., 5% CO2. 5 minutes preincubation of 2 μg mAb-B1-23 with 10 ng/ml GDF-15 at 37° C. blocked the GDF-15 mediated AKT-phosphorylation (FIG. 2).

[3] = test system: GDF-15 mediated JNK1/2-phosphorylation in immune cells; assay: JNK1/2 phosphorylation in immune cells (Western Blot); format: cell-based; conditions: 2 μg antibody, 10 ng/ml GDF-15, 5 minute preincubation
Experimental: FIG. 3: JNK1/2 Phosphorylation in Immune Cells. In order to quantify the Western Blot, the ratio of phosphorylated JNK1/2 to the total amount of JNK was calculated and normalized to the untreated control.
c) Treatment of immune cells with recombinant. GDF-15 led to the phosphorylation of JNK, a kinase, which is activated either by cytokines or by stress. Antagonization of 10 ng/ml GDF-15 with 2 μg mAb-B1-23 (5 minute preincubation at 37°) blocked the GDF-15 mediated JNK1/2-phosphorylation (FIG. 3).

[4] = test system: prostate cancer cell line LnCap; assay: Cancer cell proliferation, Alamar Blue metabolic assay; format: cell-based; conditions: after 72 hrs, compared with control group without antibody
Description: (§1) The strongest antiproliferative effect was observed using the prostate cancer cell line LnCap, which produces lots of GDF-15.

cancer cells = assay: Cytotoxic effects of the antibody (different assays); format: cell-based
Description: as §1

[5] = Aggregation study: shaking 48 hours at room temperature, visual analysis for precipitates; format: physicochemical; conditions: PBS, no stabilizing proteins for H1L5
Experimental: In order to test the aggregation properties of anti-GDF-15 antibodies, antibody samples were shaken for 48 hours at room temperature in microcentrifuge tubes, and subsequently, the tubes were visually analyzed for aggregated antibody precipitates.

[6] = Protein A elution at physiological pH and 10 fold concentration via spin columns, turbidity; format: physicochemical; conditions: TRIS Buffer at physiological pH, from 0.5 mg/ml
Experimental: FIG. 7: Improved solubility of the chimeric and the humanized antibody at physiological pH.
5 mg of antibody (B1-23, chimeric B1-23=“ChimB1-23”, H1L5) were loaded on Proteus™ protein A columns, eluted and collected in a TRIS Buffer at physiological pH. After elution, the quality of the purified antibodies was assessed by Coomassie Brilliant Blue gel analysis. The concentration of the eluted antibodies was measured photometrically as well as in a Bradford assay (Roti-Quant, Carl Roth, Karlsruhe, Germany). […] The antibodies were then 10 fold concentrated via spin columns (Centricon, MWCO 30). […] All concentrated eluates were then centrifuged for 5 min at 13000 rpm in order to precipitate antibody aggregates. The remaining amount of soluble antibodies was finally determined via Bradford assay from the supernatant.

B1: mAb-B1-23: murine IgG2a (kappa) monoclonal anti-human GDF-15 antibody produced by hybridoma cell line B1-23, DSM ACC3142 (antibody, V domains shown)
VH: QVKLQQSGPGILQSSQTLSLTCSFSGFSLSTSGMGVSWIRQPSGKGLEWLAHIYWDDDKRYNPTLKSRLTISKDPSRNQVFLKITSVDTADTATYYCARSSYGAMDYWGQGTSVTVSS
VL: DIVLTQSPKFMSTSVGDRVSVTCKASQNVGTNVAWFLQKPGQSPKALIYSASYRYSGVPDRFTGSGSGTDFTLTISNVQSEDLAEYFCQQYNNFPYTFGGGTKLEIKRTVA
association rate constant (kon) [1]: 5.4±0.06×10^5 M^−1s^−1 | dissociation rate constant (koff) [1]: 4.3±0.03×10^−4 s^−1 | GDF-15 mediated AKT-phosphorylation [2]: blocked | GDF-15 mediated JNK1/2-phosphorylation [3]: blocked | decrease of proliferation [4]: 30% | cytotoxic effects of the antibody (cancer cells): excluded | tendency to aggregate [5]: can form aggregates | aggregation after 10 fold concentration [6]: presence of precipitates
